Target: T1, GST-TRN-SR2 (transportin-SR2) (UniProt Q9Y5L0-2 1-923)
T1 construct: transportin-SR2 (TRN-SR2, TNPO3, transportin 3); also called TNPO3; transportin 3; source: recombinant, expressed from pGEX-6P-2, purified using Glutathione Sepharose Resin
T1 sequence (looked up): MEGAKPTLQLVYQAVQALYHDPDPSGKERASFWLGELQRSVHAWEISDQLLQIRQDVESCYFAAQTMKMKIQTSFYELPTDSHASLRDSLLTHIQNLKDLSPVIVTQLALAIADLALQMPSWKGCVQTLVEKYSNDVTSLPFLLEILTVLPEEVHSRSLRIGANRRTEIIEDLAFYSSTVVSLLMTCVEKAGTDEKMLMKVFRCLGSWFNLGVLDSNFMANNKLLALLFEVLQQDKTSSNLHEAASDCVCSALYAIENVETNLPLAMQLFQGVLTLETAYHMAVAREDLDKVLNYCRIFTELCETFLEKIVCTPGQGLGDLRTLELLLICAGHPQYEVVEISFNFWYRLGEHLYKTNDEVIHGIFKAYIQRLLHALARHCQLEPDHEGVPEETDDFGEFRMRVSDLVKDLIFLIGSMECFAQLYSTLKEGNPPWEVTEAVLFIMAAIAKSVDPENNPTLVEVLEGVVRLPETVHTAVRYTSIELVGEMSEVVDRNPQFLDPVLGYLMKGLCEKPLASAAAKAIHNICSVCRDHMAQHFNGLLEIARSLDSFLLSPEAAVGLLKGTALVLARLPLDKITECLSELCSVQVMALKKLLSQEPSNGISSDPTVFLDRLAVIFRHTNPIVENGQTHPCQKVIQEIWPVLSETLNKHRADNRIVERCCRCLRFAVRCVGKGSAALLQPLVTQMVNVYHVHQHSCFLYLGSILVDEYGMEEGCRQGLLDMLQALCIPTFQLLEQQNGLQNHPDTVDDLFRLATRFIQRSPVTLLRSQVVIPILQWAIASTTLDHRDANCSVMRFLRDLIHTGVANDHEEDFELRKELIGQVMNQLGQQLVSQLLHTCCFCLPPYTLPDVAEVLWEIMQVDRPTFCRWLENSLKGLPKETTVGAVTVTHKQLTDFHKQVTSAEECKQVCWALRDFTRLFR
Experiment: AlphaScreen or HTRF; 10 nM GST-TRN-SR2 titrated with 1 to 150 nM His6-tagged protein; glutathione donor and nickel-chelate acceptor beads; 25 mM Tris/HCl pH 7.4, 150 mM NaCl, 1 mM MgCl2, 0.1% Tween-20, 0.1% BSA; 1 h at 4°C, then 1.5 h at room temperature with beads; apparent Kd
Details: both partners purified

B1: MLV integrase, C-terminally His6-tagged (enzyme)
chain: IENSSPYTSEHFHYTVTDIKDLTKLGAIYDKTKKYWVYQGKPVMPDQFTFELLDFLHQLTHLSFSKMKALLERSHSPYYMLNRDRTLKNITETCKACAQVNASKSAVKQGTRVRGHRPGTHWEIDFTEIKPGLYGYKYLLVFIDTFSGWIEAFPTKKETAKVVTKKLLEEIFPRFGMPQVLGTDNGPAFVSKVSQTVADLLGIDWKLHCAYRPQSSGQVERMNRTIKETLTKLTLATGSRDWVLLLPLALYRARNTPGPHGLTPYEILYGAPPPLVNFPDPDMTRVTNSPSLQAHLQALYLVQHEVWRPLAAAYQEQLDRPVVPHPYRVGDTVWVRRHQTKNLEPRWKGPYTVLLTTPTALKVDGIAAWIHAAHVKAADPGGGPSSRLTWRVQRSQNPLKIRLTREAP
notes: integrase (IN) of murine leukemia virus (MLV); also called His6-tagged MLV IN; not shown: His6, C-terminal, kept
Question: For B1, which Kd is on record?
Answer: 17.5 ± 0.5 nM

B2: HIV-1 integrase, C-terminally His6-tagged (enzyme)
chain: FLDGIDKAQEEHEKYHSNWRAMASDFNLPPVVAKEIVASCDKCQLKGEAMHGQVDCSPGIWQLDCTHLEGKVILVAVHVASGYIEAEVIPAETGQETAYFLLKLAGRWPVKTVHTDNGSNFTSTTVKAACWWAGIKQEFGIPYNPQSQGVIESMNKELKKIIGQVRDQAEHLKTAVQMAVFIHNFKRKGGIGGYSAGERIVDIIATDIQTKELQKQITKIQNFRVYYRDSRDPVWKGPAKLLWKGEGAVVIQDNSDIKVVPRRKAKIIRDYGKQMAGDDCVASRQDED
Question: B2 was tested. Which Kd did it give?
Answer: 36.3 ± 2.3 nM
